Measured values taken from paper PMC11970713 (The FEBS journal, 2024).

Target: the molecule itself
Assay: native gel or EMSA

B1: Full length wild-type LpCopA (copper-transporting P1B-1-ATPase from Legionella pneumophila, Lpg1024) (natural protein)
chain: not shown
- stoichiometry N: 2
